Molecular target: A/California/04/2009 H1 (influenza A virus A/California/04/2009) (UniProt C3W5S1)
Assay: crystal structure

## A/California/04/2009 H1 (from UniProt C3W5S1 18-520) (natural protein)
  stoichiometry N: 2

Source: PMC4978566
